Results: PMC6351639, “Synergistic effect of acetyl xylan esterase from Talaromyces leycettanus JCM12802 and xylanase from Neocallimastix patriciarum achieved by introducing carbohydrate-binding module-1” (AMB Express, 2019)

B1: AXE (Evansstolkia leycettana) (protein)
chain: VAVDHDGARLARRITRGSLQQVTNFGSNPTNVGMYIYVPNNLATNPGIVVAIHYCTGSAQAYYSGSPYAQLAEQYGFIVIYPSSPYSGTCWDVSSQAALTHNGGGDSNSIANMVTWTISQFNADTSKVFVTGSSSGAMMTNVMAATYPELFAAATVYSGVPAGCFVSSTNQVDAWNSSCAQGQVIDTPAQWASVAENMYPGYTGPRPRMQIYHGSVDTTLYPQNYYETCKQWAGVFGYNYDSPQQTINNDPEANYQTTIWGPNLQGIFATGVGHTVPIHGTQDMEWFGFA
notes: hydrolase domain only, linker and CBM1 (310-380) removed; signal peptide removed; no tag stated; pPIC9, secreted from Pichia pastoris GS115
B2: AXE + CBM1 (Evansstolkia leycettana) (protein)
chain: VAVDHDGARLARRITRGSLQQVTNFGSNPTNVGMYIYVPNNLATNPGIVVAIHYCTGSAQAYYSGSPYAQLAEQYGFIVIYPSSPYSGTCWDVSSQAALTHNGGGDSNSIANMVTWTISQFNADTSKVFVTGSSSGAMMTNVMAATYPELFAAATVYSGVPAGCFVSSTNQVDAWNSSCAQGQVIDTPAQWASVAENMYPGYTGPRPRMQIYHGSVDTTLYPQNYYETCKQWAGVFGYNYDSPQQTINNDPEANYQTTIWGPNLQGIFATGVGHTVPIHGTQDMEWFGFAGESTGGGTTTTSATTTTTSKPTSTTSSGGSTSTAVAQHWGQCGGIGWTGPTTCVSPYTCTFVNDYYYQCL
notes: mature full-length: hydrolase domain 20-309, S/T-rich linker 310-342, CBM1 343-380; signal peptide removed; no tag stated; pPIC9, secreted from Pichia pastoris GS115

Substrate: CC(=O)Oc1ccc([N+](=O)[O-])cc1
Assay: purified protein
Format: biochemical, Evansstolkia leycettana
Conditions: optimal conditions, 55 °C, 20 mM citric acid-Na2HPO4 pH 6.0 (standard assay), free enzyme

Row | Protein | Km [µM] | Vmax [µmol/min/mg] | kcat [s⁻¹] | kcat/Km [M⁻¹ s⁻¹]
1 | B1 | 720 ± 30 | 625 | 326 ± 17 | 453000 ± 18000
2 | B2 | 500 ± 20 | 455 | 306 ± 9 | 612000 ± 12000
